These results are taken from patent publication US12247244B2, “Membrane protein activity measurement method” (THE UNIVERSITY OF TOKYO, priority 2018, dated 2025).

The test has as its target T1, human Flt3 (hFlt3) (Homo sapiens, UniProt P36888).
T1 construct: expressed in transfected cells; host or cells: NCP19 cells (HeLa-derived knock-in clone)
T1 sequence (P36888 27-993): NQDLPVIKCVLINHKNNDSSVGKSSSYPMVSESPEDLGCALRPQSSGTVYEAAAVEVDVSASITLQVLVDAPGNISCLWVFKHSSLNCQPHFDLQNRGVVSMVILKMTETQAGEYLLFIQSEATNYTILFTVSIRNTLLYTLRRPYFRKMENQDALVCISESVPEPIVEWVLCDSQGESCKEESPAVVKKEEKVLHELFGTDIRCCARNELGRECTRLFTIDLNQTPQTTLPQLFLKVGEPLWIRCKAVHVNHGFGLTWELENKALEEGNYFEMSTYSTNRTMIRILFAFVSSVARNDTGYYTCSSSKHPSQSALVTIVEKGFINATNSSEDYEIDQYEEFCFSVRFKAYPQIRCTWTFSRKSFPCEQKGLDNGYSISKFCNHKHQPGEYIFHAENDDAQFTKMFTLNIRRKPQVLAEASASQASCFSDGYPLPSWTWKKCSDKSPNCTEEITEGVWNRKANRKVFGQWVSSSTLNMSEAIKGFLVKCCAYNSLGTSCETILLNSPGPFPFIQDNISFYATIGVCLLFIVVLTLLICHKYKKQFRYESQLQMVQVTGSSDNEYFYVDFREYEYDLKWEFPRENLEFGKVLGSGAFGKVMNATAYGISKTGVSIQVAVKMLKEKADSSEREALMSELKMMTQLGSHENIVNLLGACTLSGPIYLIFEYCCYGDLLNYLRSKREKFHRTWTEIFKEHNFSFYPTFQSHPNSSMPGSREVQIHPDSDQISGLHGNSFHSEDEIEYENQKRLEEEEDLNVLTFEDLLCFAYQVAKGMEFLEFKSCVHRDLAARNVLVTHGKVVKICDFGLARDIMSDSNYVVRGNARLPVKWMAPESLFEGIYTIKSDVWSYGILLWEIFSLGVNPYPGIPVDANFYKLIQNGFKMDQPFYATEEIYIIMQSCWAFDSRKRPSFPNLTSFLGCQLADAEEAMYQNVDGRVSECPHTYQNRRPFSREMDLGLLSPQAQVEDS
Description: NCP19 knock-in reporter cell assay (UAS-luciferase) for hFlt3 activation. To be noted: NCP19 cells transfected with hFlt3; ligand 30, 3, 0.3, 0.03, 0 ng/ml; stimulation for 6 hours; FIG. 12. Format: cell-based. Here is the method:
• Used cells: NCP19 • Used plasmids: • (1) a plasmid that expresses hFlt3 (an hFlt3 expression plasmid); and • (2) UAS-luciferase. • Day 1: NCP19 cells were seeded on a 96-well plate at a density of 24000 cells/well. • Day 2: Within 24 hours after the seeding on the 96-well plate, 90 ng of DNA per well (a plasmid cocktail consisting of 60 ng of hFlt3+30 ng of UAS-luciferase) was transfected into the cells according to a lipofection method. • Day 3: Twenty-four hours after the transfection, the cells were stimulated by a ligand (Flt3-ligand: at concentrations of 30, 3, 0.3, 0.03, and 0 ng/ml). After the stimulation for 6 hours, a culture supernatant was discarded, and a substrate for luciferase was added, and then, luminescence signals were measured using a plate reader.

B1: Flt3-ligand: ligand used to stimulate the receptor tyrosine kinase hFlt3 (protein)
chain: TQDCSFQHSPISSDFAVKIRELSDYLLQDYPVTVASNLQDEELCGGLWRLVLAQRWMERLKTVAGSKMQGLLERVNTEIHFVTKCAFQPPPSCLRFVQTNISRLLQETSEQLVALKPWITRQNFSRCLELQCQPDSSTLPPPWSPRPLEATAPTA
On to B1, for which the “activation of hFlt3, luminescence of luciferase” value is “detected as the luminescence of luciferase”.
